Results as given in US20130303393A1 (RESEARCH DEVELOPMENT FOUNDATION, published 2013).
Changes are numbered by the printed parent chain.

B1: YMB2 IgG (antibody, V domains shown)
VH: EVQLQQSGAELVKPGASVKLSCTASGFNIKDTYMHWVKQRPEQGLEWIGRIDPENGNTKYDPKFQGKATITADTSSNTAYLQLSSLTSEDTAVYYCARFLITTGYFDYWGQGTTLTVSS
VL: DIVLTQSHKFMSTSVGDRVSITCKASQDVGTAVAWYQQKPGQSPKLLIYWASTRHTGVPDRFTGSGSGTDFTLTISNVQSEDLADYFCQQYSSYPLTFGAGTKLEIKR
B2: YMF10 IgG (antibody, V domains shown)
VH: EVQLQQSGAELVRSGASVKLSCTASGFNIKDYYMHWVKQRPEQGLEWIGWIDPENGDTEYAPKFQGKATMSADTSSNTAYLQLSSLTSEDTAVYYCNAGTPFEGLRRADYWGQGTTLTVSS
VL: B1 VL with L4M, I106L, K107N
B3: YMD1 IgG (antibody, V domains shown)
VH: B2 VH with Q5V, Q6E, S71T, R107K
VL: B1 VL with L4M, F10L, K45R, S76T, L96Y, A100G

The binders below were run against PA-63 (Bacillus anthracis, UniProt P13423 197-764).
Chain of PA-63 (P13423 197-764 limits assumed): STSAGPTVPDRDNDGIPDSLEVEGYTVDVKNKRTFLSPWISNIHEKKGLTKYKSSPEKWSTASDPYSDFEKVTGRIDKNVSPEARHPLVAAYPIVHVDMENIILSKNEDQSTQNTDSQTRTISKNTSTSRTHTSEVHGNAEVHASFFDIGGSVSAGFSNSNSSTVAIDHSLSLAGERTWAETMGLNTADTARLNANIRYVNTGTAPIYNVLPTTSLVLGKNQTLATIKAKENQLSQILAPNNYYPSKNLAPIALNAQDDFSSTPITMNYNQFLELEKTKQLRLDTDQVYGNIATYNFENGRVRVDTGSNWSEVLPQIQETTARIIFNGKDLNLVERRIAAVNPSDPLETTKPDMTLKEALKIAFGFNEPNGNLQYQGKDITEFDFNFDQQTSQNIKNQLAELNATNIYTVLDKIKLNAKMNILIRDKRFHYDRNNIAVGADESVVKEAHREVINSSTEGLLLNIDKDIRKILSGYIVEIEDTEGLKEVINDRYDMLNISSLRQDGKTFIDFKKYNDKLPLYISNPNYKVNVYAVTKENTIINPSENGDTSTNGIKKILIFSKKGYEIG

Row | Binder | Kd [nM] | koff [s⁻¹] | kon [M⁻¹ s⁻¹]
1 | B1 | 437 | 0.014 | 32000
2 | B2 | 31 | 0.015 | 490000
3 | B3 | 55 | 0.019 | 350000
